Laboratory results: patent US20250345387A1, “CORONAVIRUS THERAPEUTICS AND TREATMENT METHODS” (priority 2020, published 2025)
Where no end group is shown, it is not given here. Side-chain parts run from the residue outwards. 4‑arm PEG 10 kDa = 10 kDa 4-armed polyethylene glycol

T1: recombinant cynomolgus monkey Tie2-FC (Macaca fascicularis, UniProt G7PS68 23-748)
T1 chain: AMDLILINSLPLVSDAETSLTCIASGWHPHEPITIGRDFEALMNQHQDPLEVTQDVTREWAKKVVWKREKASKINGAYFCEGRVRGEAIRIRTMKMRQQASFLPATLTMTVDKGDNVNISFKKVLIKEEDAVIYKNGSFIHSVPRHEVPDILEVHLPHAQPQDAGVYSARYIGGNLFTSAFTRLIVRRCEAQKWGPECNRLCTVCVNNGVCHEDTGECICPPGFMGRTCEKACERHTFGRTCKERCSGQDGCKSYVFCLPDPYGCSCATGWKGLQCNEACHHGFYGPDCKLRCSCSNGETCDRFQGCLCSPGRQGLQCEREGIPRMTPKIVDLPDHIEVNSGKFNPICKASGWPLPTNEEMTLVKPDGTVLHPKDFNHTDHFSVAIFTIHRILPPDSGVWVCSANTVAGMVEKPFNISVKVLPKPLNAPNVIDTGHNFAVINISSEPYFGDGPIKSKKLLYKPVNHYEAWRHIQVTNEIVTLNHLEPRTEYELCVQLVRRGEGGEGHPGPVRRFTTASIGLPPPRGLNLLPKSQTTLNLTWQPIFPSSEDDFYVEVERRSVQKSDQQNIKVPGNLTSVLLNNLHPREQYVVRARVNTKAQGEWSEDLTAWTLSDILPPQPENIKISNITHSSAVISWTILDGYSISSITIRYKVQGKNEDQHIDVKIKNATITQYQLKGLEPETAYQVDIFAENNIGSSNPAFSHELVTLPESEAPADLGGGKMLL

T2: recombinant rat Tie2-FC (Rattus norvegicus, UniProt A0ABK0L6J5 19-740)
T2 chain: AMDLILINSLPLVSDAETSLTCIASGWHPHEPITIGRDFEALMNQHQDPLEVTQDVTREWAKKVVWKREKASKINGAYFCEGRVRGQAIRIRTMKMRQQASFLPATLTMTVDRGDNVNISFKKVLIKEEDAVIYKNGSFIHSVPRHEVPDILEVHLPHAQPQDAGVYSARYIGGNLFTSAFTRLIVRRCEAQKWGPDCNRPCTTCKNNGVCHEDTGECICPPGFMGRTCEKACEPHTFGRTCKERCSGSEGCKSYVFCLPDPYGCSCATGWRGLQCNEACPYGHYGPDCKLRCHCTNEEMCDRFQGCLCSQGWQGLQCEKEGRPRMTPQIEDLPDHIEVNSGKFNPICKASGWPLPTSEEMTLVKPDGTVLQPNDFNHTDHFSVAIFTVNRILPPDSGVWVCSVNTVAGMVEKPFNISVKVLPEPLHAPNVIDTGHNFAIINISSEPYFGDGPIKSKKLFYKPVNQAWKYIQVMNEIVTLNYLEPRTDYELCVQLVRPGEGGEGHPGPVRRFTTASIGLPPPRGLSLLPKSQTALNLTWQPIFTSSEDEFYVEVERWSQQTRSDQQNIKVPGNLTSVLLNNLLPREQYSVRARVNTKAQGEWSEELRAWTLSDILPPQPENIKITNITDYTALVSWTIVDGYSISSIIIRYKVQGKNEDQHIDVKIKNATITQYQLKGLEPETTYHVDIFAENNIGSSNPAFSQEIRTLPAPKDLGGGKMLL

T3: recombinant mouse Tie2Fc (mouse, UniProt Q02858 23-743)
T3 chain: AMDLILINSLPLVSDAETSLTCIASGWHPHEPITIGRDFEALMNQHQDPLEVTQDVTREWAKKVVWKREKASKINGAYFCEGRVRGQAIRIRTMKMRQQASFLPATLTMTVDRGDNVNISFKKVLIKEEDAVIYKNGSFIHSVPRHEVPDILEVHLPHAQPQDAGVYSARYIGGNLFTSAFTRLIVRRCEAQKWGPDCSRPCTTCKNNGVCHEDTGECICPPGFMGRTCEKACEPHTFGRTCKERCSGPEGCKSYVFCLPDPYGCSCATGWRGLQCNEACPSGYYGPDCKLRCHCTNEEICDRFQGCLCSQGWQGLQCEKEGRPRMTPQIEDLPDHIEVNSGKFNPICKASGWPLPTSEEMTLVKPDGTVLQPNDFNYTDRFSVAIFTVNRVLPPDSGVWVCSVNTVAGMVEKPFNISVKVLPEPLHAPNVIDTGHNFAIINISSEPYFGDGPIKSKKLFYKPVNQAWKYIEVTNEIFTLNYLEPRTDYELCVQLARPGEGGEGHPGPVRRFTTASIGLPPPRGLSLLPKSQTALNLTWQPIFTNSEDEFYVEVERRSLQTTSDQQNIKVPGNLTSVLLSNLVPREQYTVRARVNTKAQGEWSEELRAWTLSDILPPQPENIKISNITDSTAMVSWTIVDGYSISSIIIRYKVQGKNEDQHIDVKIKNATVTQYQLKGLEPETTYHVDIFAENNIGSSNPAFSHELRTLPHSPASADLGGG

B1: MPA-Br (peptide)
peptide: HHHRHSF-OH
modifications: not fully specified (N-terminus); also: tetramer: four copies on (bromoacetimide)4-PEG10K
notes: Mpa is not an amino acid; also called mBr; AV-001
B2: parental Vasculotide (peptide)
peptide: C([maleimide-4‑arm PEG 10 kDa])HHHRHSF
modifications: also: tetramer: four copies on 4-armed 10 kDa PEG, mixture of succinimide and thiazine ring products
notes: Manufactured by Bachem; also called VT; parental VT

Assays:
[1] = target: human Tie2 receptor on human endothelial cells (HUVEC, HMVECtert) (human, UniProt Q02763 23-1124); assay: cell-based or functional assay
[2] = target: T1, recombinant cynomolgus monkey Tie2-FC; assay: tryptophan fluorescence spectroscopy
recombinant rat Tie2-FC = target: T2, recombinant rat Tie2-FC; assay: tryptophan fluorescence spectroscopy
recombinant mouse Tie2Fc = target: T3, recombinant mouse Tie2Fc; assay: tryptophan fluorescence spectroscopy
recombinant human Tie2Fc = target: T4, recombinant human Tie2Fc (human, UniProt Q02763 23-745); assay: tryptophan fluorescence spectroscopy in solution, non-linear regression one site specific binding
T4 construct: Bought from R&D Systems; not shown: human IgG Fc
Excerpt: The specific signal was derived by subtraction of the fluorescence intensity generated by ligand alone from the receptor and ligand complex.
Ligand and receptor interaction. […] Data was compiled using SoftMax and analyzed using Prism.

Row | Binder | relative magnitude of Tie2 activation in HMVECtert [1] [fold] | Kd [2] [nM] | Kd (recombinant rat Tie2-FC) [nM] | Kd (recombinant mouse Tie2Fc) [nM] | Kd (recombinant human Tie2Fc) [nM]
1 | B1 | ~3.3 | 0.0229 | 4.21 | 6.82 | 2.62
2 | B2 |  |  |  | 35 | 
